Test results from patent US8252554B2, “Halohydrin dehalogenases and related polynucleotides” (Codexis, Inc., priority 2003, dated 2012).
Changes are numbered by the printed parent chain.

B1: SEQ ID NO: 32: native halohydrin dehalogenase from Agrobacterium radiobacter AD1 (hheC), expressed from SEQ ID NO. 31 (protein)
chain: MSTAIVTNVKHFGGMGSALRLSEAGHTVACHDESFKQKDELEAFAETYPQLKPMSEQEPAELIEAVTSAYGQVDVLVSNDIFAPEFQPIDKYAVEDYRGAVEALQIRPFALVNAVASQMKKRKSGHIIFITSATPFGPWKELSTYTSARAGACTLANALSKELGEYNIPVFAIGPNYLHSEDSPYFYPTEPWKTNPEHVAHVKKVTALQRLGTQKELGELVAFLASGSCDYLTGQVFWLAGGFPMIERWPGMPE
B2: SEQ ID NO: 4: improved HHDH (halohydrin dehalogenase) polypeptide of the Sequence Listing (protein)
chain: B1 chain with K36N, F44L, A45P, S55R
B3: SEQ ID NO: 6: improved HHDH (halohydrin dehalogenase) polypeptide of the Sequence Listing (protein)
chain: B1 chain with A24T
B4: SEQ ID NO: 30: improved HHDH (halohydrin dehalogenase) polypeptide of the Sequence Listing (protein)
chain: B1 chain with A4V
B5: SEQ ID NO: 8: improved HHDH (halohydrin dehalogenase) polypeptide of the Sequence Listing (protein)
chain: B1 chain with R20S, A29T

Experiments:
Format in all cases: biochemical
HHDH = HHDH (Agrobacterium tumefaciens, UniProt Q93D82); experiment: Inhibition of HHDH by ECAA; conditions: inhibitor of HHDH
[1] = Example 7 manufacture of ethyl (R)-4-cyano-3-hydroxybutyrate with HHDH cell lysate; conditions: 40° C., pH 7, 17 hours
Experimental: To a 3-necked jacketed 3 L flask equipped with a mechanical stirrer and connected to an automatic titrater by a pH electrode and a feeding tube for addition of base, was charged H2O (1200 mL), NaCN (37.25 g) and NaH2PO4 (125 g) to bring the solution to pH 7. The water circulator was set to 40° C. After 10 minutes, halohydrin dehalogenase of SEQ ID NO: 32 as cell lysate (250 mL) was added. The reaction mixture was allowed to stir for 5 minutes. Using an addition funnel, ethyl (S)-4-chloro-3-hydroxybutyrate (45 g) was slowly added over 1 hour. The pH was maintained at 7 by the automatic titrater by the addition of 10 M NaOH (27 mL) over 17 hours. […] Celite™ (16 g) was added to the flask, which was then connected to a diaphragm pump, whose exhaust is bubbled into 5M NaOH (200 mL), to remove HCN. The mixture was heated to 60° C. under 100 mm Hg pressure. After 1 hour, a submerged air bubbler was added to the solution to aid the removal of the HCN. After 3 hours, an HCN detector indicated less than 5 ppm HCN in the off-gas. The mixture was allowed to cool to room temperature, then filtered through a Celite™ pad. […] Enantiomeric composition can be readily characterized by using the gas chromatography method described in Example 6, above, and using methods that are known in the art.

[2] = Example 5A gas chromatography assay of HHDH activity (conversion of ECHB to ethyl (R)-4-cyano-3-hydroxybutyrate); conditions: ECHB substrate; Activity of Improved HHDH Enzyme/Activity of Agrobacterium sp. HHDH (SEQ ID NO: 2)
Experimental: To a solution of ethyl (S)-4-chloro-3-hydroxybutyrate (10 mM-100 mM) in 500 mM HCN (500 mM NaCN adjusted to pH 7.0 with phosphoric acid) was added the halohydrin dehalogenase enzyme as a predissolved solution in the same buffer. Over time, aliquots of the mixture were withdrawn and extracted with three volumes of ethyl acetate. The organic layer was then analysed for ethyl (R)-4-cyano-3-hydroxybutyrate by gas chromatography (GC), as described hereinbelow in Example 6. Samples were taken at various time points, and the peak area of the product cyanohydrin, ethyl (R)-4-cyano-3-hydroxybutyrate, was plotted as a function of time. Time points are selected at low conversion, for example, less than 5% conversion, to avoid the effect of product inhibition (e.g., 0.5%, 1.0%, 1.5%, 2.0%, 2.5%, 3.0%, etc.). The peak areas were converted to concentration units using a standard curve that was prepared for the ethyl (R)-4-cyano-3-hydroxybutyrate. Activity of the halohydrin dehalogenase was determined in units of μmol (cyanohydrin produced)/min/mg (total halohydrin dehalogenase catalyst). Relative activities of some of the clones are shown in Table 2, computed as Activity of Improved HHDH Enzyme/Activity of Agrobacterium sp. HHDH (SEQ ID NO: 2).
The ethyl (R)-4-cyano-3-hydroxybutyrate produced in Example 5A was analyzed using gas chromatography with flame ionization (FID) detection using an Agilent® HP-5™ column, 30 m long, 0.32 mm inner diameter, film 0.25 μm, using the following program: 1 minute at 100° C., 5° C./minute for 10 minutes; 25° C./minute for 2 minutes; then 2 minutes at 200° C. Inlet and outlet temperatures were both 300° C., and the flow rate was 2 ml/minute. Under these conditions, ethyl (R)-4-cyano-3-hydroxybutyrate elutes at 6.25 minutes and ethyl (S)-4-chloro-3-hydroxybutyrate elutes at 4.5 minutes. Chemical purity of the species was measured using the integrated peak areas from the gas chromatography results.

Row | Molecule | Fold Improvement in HHDH Activity over Aerobacterium sp. HHDH (SEQ ID NO: 2) [2] | further results
1 | CCOC(=O)CC(=O)CCl [ECAA, Ethyl-4-chloroacetoacetate] |  | Ki (HHDH): ~70 µM
2 | B1 |  | conversion to product by gas chromatography [1]: complete conversion to product
3 | B2 | 1.5 Fold | 
4 | B3 | 1.6 Fold | 
5 | B4 | 2.8 Fold | 
6 | B5 | 1.8 Fold | 
